The data set concerns the molecule itself. In words: high-speed atomic force microscopy.

As usually defined, the stoichiometry N is the number of molecules, sites or subunits per partner or assembly.

B1: PDI I289A (enzyme)
chain: not shown
As to B1, the “stoichiometry N” value was 2.

(Values after paper doi:10.1101/2021.01.04.425348 (bioRxiv, 2021).)
